According to the supplement of paper PMC9112550, “Optimization of the antimicrobial peptide Bac7 by deep mutational scanning” (BMC Biology, 2022):

Tested on: Escherichia coli TOP10
Experiment: shrunken log2 fold change of peptide-encoding DNA abundance (4.5 h post-induction vs induction); higher = less antimicrobial activity (less host growth inhibition)
Settings: time post-induction: 4.5 h; library: site-saturation at positions 5, 18, 19, 20
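Note: peptides expressed intracellularly from a pBAD plasmid library in pooled LB shake-flask culture, induced with 0.3% L-arabinose, DNA abundance read by NGS, three biological replicates, DESeq2 with apeglm shrinkage.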

Sequence | shrunken log2 fold change
RRIRQRPPRLPRPRPRPHIRPRP | -0.209
RRIRWRPPRLPRPRPRPEWEPRP | 0.00016
RRIRNRPPRLPRPRPRPAYMPRP | -0.119
RRIRCRPPRLPRPRPRPMWFPRP | -0.254
RRIRMRPPRLPRPRPRPPAHPRP | 0.721
RRIRVRPPRLPRPRPRPYHLPRP | -0.184
RRIRMRPPRLPRPRPRPFTSPRP | -0.0967
RRIRDRPPRLPRPRPRPCEAPRP | -0.0794
RRIRIRPPRLPRPRPRPKVMPRP | -0.206
RRIRMRPPRLPRPRPRPMPQPRP | 4.29
RRIRWRPPRLPRPRPRPGHEPRP | 0.0994
RRIRTRPPRLPRPRPRPGNPPRP | -0.34
RRIRARPPRLPRPRPRPEPQPRP | 0.862
RRIRERPPRLPRPRPRPGCDPRP | 0.0125
RRIRSRPPRLPRPRPRPSMMPRP | -0.105
RRIRDRPPRLPRPRPRPFSNPRP | -0.0771
RRIRERPPRLPRPRPRPTDRPRP | 0.0616
RRIRKRPPRLPRPRPRPPTAPRP | 0.742
RRIRMRPPRLPRPRPRPPQNPRP | 1.13
RRIRCRPPRLPRPRPRPHPMPRP | -0.243
RRIRERPPRLPRPRPRPFIQPRP | -0.176
RRIRVRPPRLPRPRPRPCYGPRP | -0.259

Sequence | shrunken log2 fold change
RRIRMRPPRLPRPRPRPMFIPRP | -0.403
RRIRVRPPRLPRPRPRPIMAPRP | -0.111
RRIRKRPPRLPRPRPRPLKVPRP | 0.237
RRIRFRPPRLPRPRPRPAMQPRP | 0.109
RRIRCRPPRLPRPRPRPHIRPRP | -0.585
RRIRRRPPRLPRPRPRPNYAPRP | 0.0933
RRIRMRPPRLPRPRPRPIFLPRP | -0.227
RRIRARPPRLPRPRPRPTAQPRP | 0.936
RRIRYRPPRLPRPRPRPWREPRP | 0.0494
RRIRVRPPRLPRPRPRPINLPRP | -0.304
RRIRHRPPRLPRPRPRPPIGPRP | 0.0617
RRIRHRPPRLPRPRPRPSCPPRP | -0.217
RRIRYRPPRLPRPRPRPSWRPRP | -0.137
RRIRNRPPRLPRPRPRPNVVPRP | -0.122
RRIRMRPPRLPRPRPRPTWWPRP | 0.596
RRIRGRPPRLPRPRPRPKTWPRP | 0.155
RRIRMRPPRLPRPRPRPKCQPRP | 1.33
RRIRGRPPRLPRPRPRPPCDPRP | 0.734
RRIRPRPPRLPRPRPRPYILPRP | -0.588
RRIRMRPPRLPRPRPRPWGDPRP | 0.0652
RRIRPRPPRLPRPRPRPWVGPRP | 0.0889
RRIRHRPPRLPRPRPRPSDDPRP | -0.0349

Sequence | shrunken log2 fold change
RRIRLRPPRLPRPRPRPQSEPRP | -0.0331
RRIRVRPPRLPRPRPRPENGPRP | -0.158
RRIRARPPRLPRPRPRPQRSPRP | 0.17
RRIRTRPPRLPRPRPRPQAEPRP | -0.00758
RRIRYRPPRLPRPRPRPVNQPRP | -0.058
RRIRSRPPRLPRPRPRPQLPPRP | 0.53
RRIRTRPPRLPRPRPRPWKVPRP | -0.00663
RRIRDRPPRLPRPRPRPYYRPRP | -0.163
RRIRDRPPRLPRPRPRPKIIPRP | -0.0166
RRIRERPPRLPRPRPRPNQAPRP | -0.0316
RRIRERPPRLPRPRPRPRNDPRP | -0.478
RRIRDRPPRLPRPRPRPILQPRP | -0.0838
RRIRVRPPRLPRPRPRPPFQPRP | 0.164
RRIRPRPPRLPRPRPRPDLCPRP | -0.0739
RRIRARPPRLPRPRPRPRPNPRP | 0.493
RRIRQRPPRLPRPRPRPPHNPRP | 1.15
RRIRWRPPRLPRPRPRPEPSPRP | 0.39
RRIRIRPPRLPRPRPRPKCWPRP | 0.139
RRIRGRPPRLPRPRPRPLPNPRP | 0.781
RRIRDRPPRLPRPRPRPSFWPRP | 0.585
RRIRIRPPRLPRPRPRPGGMPRP | -0.0648
RRIRIRPPRLPRPRPRPQMGPRP | -0.0795

Sequence | shrunken log2 fold change
RRIRDRPPRLPRPRPRPLYEPRP | -0.0254
RRIRNRPPRLPRPRPRPVMRPRP | 0.526
RRIRARPPRLPRPRPRPEIEPRP | 0.719
RRIRWRPPRLPRPRPRPSFQPRP | -0.284
RRIRVRPPRLPRPRPRPYMPPRP | -0.78
RRIRHRPPRLPRPRPRPHMVPRP | -1.01
RRIRLRPPRLPRPRPRPYDQPRP | -0.562
RRIRMRPPRLPRPRPRPVNWPRP | 0.223
RRIRPRPPRLPRPRPRPMSSPRP | -0.135
RRIRVRPPRLPRPRPRPWGCPRP | 0.076
RRIRMRPPRLPRPRPRPVDMPRP | 0.185
RRIRIRPPRLPRPRPRPYHDPRP | -0.28
RRIRKRPPRLPRPRPRPTNKPRP | 0.14
RRIRFRPPRLPRPRPRPGRLPRP | 0.262
RRIRDRPPRLPRPRPRPEWVPRP | -0.0272
RRIRQRPPRLPRPRPRPAFKPRP | -0.015
RRIRWRPPRLPRPRPRPRSYPRP | -0.0435
RRIRRRPPRLPRPRPRPYDRPRP | -0.164
RRIRNRPPRLPRPRPRPVRTPRP | 0.296
RRIRWRPPRLPRPRPRPIAIPRP | -0.347
RRIRIRPPRLPRPRPRPYWGPRP | -0.151
RRIRKRPPRLPRPRPRPVCNPRP | -0.148

Sequence | shrunken log2 fold change
RRIRRRPPRLPRPRPRPRTVPRP | 0.693
RRIRKRPPRLPRPRPRPAWCPRP | 0.0965
RRIRQRPPRLPRPRPRPGMTPRP | 0.00903
RRIRSRPPRLPRPRPRPEKLPRP | -0.264
RRIRLRPPRLPRPRPRPKTEPRP | 0.14
RRIRGRPPRLPRPRPRPMKEPRP | 0.31
RRIRSRPPRLPRPRPRPYDLPRP | -0.261
RRIRCRPPRLPRPRPRPPFCPRP | 0.291
RRIRSRPPRLPRPRPRPERVPRP | 0.21
RRIRHRPPRLPRPRPRPTQPPRP | 0.306
RRIRPRPPRLPRPRPRPQSDPRP | 0.0199
RRIRCRPPRLPRPRPRPFGEPRP | -0.282
RRIRLRPPRLPRPRPRPWFPPRP | -0.157
RRIRERPPRLPRPRPRPNYPPRP | -0.509
RRIRIRPPRLPRPRPRPYAEPRP | -0.844
RRIRCRPPRLPRPRPRPQRAPRP | -0.012
RRIRERPPRLPRPRPRPTQFPRP | -0.118
RRIRARPPRLPRPRPRPACKPRP | 0.558
RRIRGRPPRLPRPRPRPHNVPRP | 0.0498
RRIRSRPPRLPRPRPRPFHAPRP | 0.042
RRIRHRPPRLPRPRPRPMREPRP | 0.237
